Reference: the Human Domainome abundance scans (Beltran et al. 2025)
± gives the uncertainty stated by the source.

B1: Tripartite motif-containing protein 49C, residues 87 to 133; numbered along this chain, P0CI26 (parent)
chain: SSEEQMCGTHRETKKIFCEVDRSLLCLLCSSSQEHRYHRHRPIEWAA

Variants of: B1
Assay: abundance fitness (aPCA) (normalised: wild type 0, dead -1); higher = more abundant; growth selection in yeast, the domain comes from the species named
Conditions: Homo sapiens

Abundance fitness: each site, then its substitutions
T13: F -0.232 ± 0.13 | D -0.364 ± 0.14 | M 0.242 ± 0.12 | G -0.196 ± 0.079 | W -0.436 ± 0.1 | C -0.22 ± 0.1 | E -0.028 ± 0.14 | P 0.313 ± 0.12 | S -0.081 ± 0.086 | K -0.224 ± 0.15 | A 0.168 ± 0.097 | Q 0.148 ± 0.13 | Y -0.277 ± 0.17 | L -0.21 ± 0.1 | R -0.128 ± 0.075 | N -0.431 ± 0.15 | V -0.033 ± 0.085 | H 0.006 ± 0.16 | I 0.046 ± 0.089
R11: Y -1.07 ± 0.36 | W -0.36 ± 0.1
C18: H -0.768 ± 0.16 | R -0.736 ± 0.094 | K -0.381 ± 0.2 | W -0.907 ± 0.13 | I -0.783 ± 0.23 | S -0.327 ± 0.11 | A -0.907 ± 0.15 | L -1.09 ± 0.17 | M -0.674 ± 0.17 | N -0.286 ± 0.18 | E -0.333 ± 0.23 | D -0.669 ± 0.21 | Q -0.731 ± 0.15 | T -0.471 ± 0.11 | F -0.802 ± 0.16 | Y -0.801 ± 0.18 | G -0.821 ± 0.11
I16: V -0.129 ± 0.093 | H -0.557 ± 0.3 | M -0.107 ± 0.1 | N -0.677 ± 0.19 | T -0.399 ± 0.13 | F -0.325 ± 0.19 | S -0.439 ± 0.094 | K -0.197 ± 0.12 | D -0.392 ± 0.2 | Q -0.468 ± 0.14 | P -0.574 ± 0.13 | W -0.28 ± 0.089 | R -0.497 ± 0.084 | E -0.444 ± 0.13 | A -0.703 ± 0.12 | Y -0.077 ± 0.28 | L -0.372 ± 0.091 | G -0.554 ± 0.1 | C -0.384 ± 0.12
E19: L -0.651 ± 0.12 | A -0.498 ± 0.11 | V -0.586 ± 0.095 | G -0.619 ± 0.098 | C -0.255 ± 0.19 | I -0.5 ± 0.21 | K -0.66 ± 0.18 | T -0.512 ± 0.16 | Y -0.737 ± 0.2 | W -0.647 ± 0.14 | S -0.452 ± 0.12 | P -0.026 ± 0.13 | D -0.297 ± 0.2 | Q -0.368 ± 0.15 | H -0.944 ± 0.22 | R -0.602 ± 0.1 | F -0.927 ± 0.26 | N -0.433 ± 0.2 | M -0.585 ± 0.16
R22: E 0.449 ± 0.16 | T -0.764 ± 0.16 | W -0.504 ± 0.16 | F -0.772 ± 0.23 | N 0.019 ± 0.22 | D -0.101 ± 0.26 | Q 0.117 ± 0.15 | Y -0.47 ± 0.29 | G 0.174 ± 0.098 | V -0.575 ± 0.098 | S -0.132 ± 0.11 | L -0.327 ± 0.13 | M -0.251 ± 0.15 | A -0.267 ± 0.11 | I -0.588 ± 0.23 | K 0.22 ± 0.12
S30: E -0.165 ± 0.12 | Y -0.407 ± 0.2 | G -0.319 ± 0.097 | F -0.776 ± 0.16 | N -0.555 ± 0.31 | V -0.257 ± 0.093 | W -0.615 ± 0.18 | H -0.528 ± 0.25 | K -0.72 ± 0.19 | I -0.435 ± 0.21 | M -0.176 ± 0.18 | T -0.19 ± 0.12 | A 0.203 ± 0.1 | P -0.622 ± 0.12 | R -0.697 ± 0.1 | Q -0.665 ± 0.14 | D -0.288 ± 0.18
L27: S 0.058 ± 0.072 | A 0.111 ± 0.074 | F -0.015 ± 0.083 | I -0.063 ± 0.096 | G 0.145 ± 0.068 | N 0.271 ± 0.09 | M 0.231 ± 0.08 | W -0.017 ± 0.077 | R 0.149 ± 0.07 | E 0.437 ± 0.08 | P 0.132 ± 0.075 | Y 0.059 ± 0.086 | T 0.106 ± 0.081 | D 0.158 ± 0.084 | Q 0.135 ± 0.081
L24: Y -0.085 ± 0.13 | A -0.044 ± 0.09 | T -0.099 ± 0.15 | Q -0.159 ± 0.11 | C -0.174 ± 0.12 | F -0.069 ± 0.19 | G -0.253 ± 0.083 | E -0.106 ± 0.12 | K -0.403 ± 0.14 | P -0.217 ± 0.13 | H -0.298 ± 0.22 | R -0.213 ± 0.098 | D -0.294 ± 0.14 | I -0.61 ± 0.2 | N -0.212 ± 0.17 | W -0.095 ± 0.13 | S -0.306 ± 0.12 | V -0.139 ± 0.096
L28: E 0.189 ± 0.12 | C -0.389 ± 0.16 | D -0.17 ± 0.27 | V 0.186 ± 0.094 | M 0.024 ± 0.11 | T 0.204 ± 0.12 | R -0.068 ± 0.089 | K 0.003 ± 0.14 | S 0.12 ± 0.092 | Q 0.274 ± 0.13 | N 0.075 ± 0.12 | Y 0.056 ± 0.11 | F -0.422 ± 0.15 | P -0.095 ± 0.14 | W -0.368 ± 0.093 | H -0.246 ± 0.2
C26: A -0.891 ± 0.18 | L -0.787 ± 0.15 | E -0.806 ± 0.19 | S -0.777 ± 0.14 | W -1.09 ± 0.16 | R -0.798 ± 0.12 | Y -1.15 ± 0.24 | V -1.1 ± 0.14 | H -0.962 ± 0.45 | D -0.118 ± 0.29 | K -0.894 ± 0.23 | G -0.734 ± 0.09 | M -1.08 ± 0.25 | F -0.901 ± 0.26 | Q -0.776 ± 0.36 | T -1.05 ± 0.38
D21: C 0.149 ± 0.12 | F -0.562 ± 0.18 | P -1.02 ± 0.17 | W -0.198 ± 0.098 | I -0.789 ± 0.32 | N -0.01 ± 0.13 | K 0.022 ± 0.12 | M -0.604 ± 0.14 | T 0.061 ± 0.11 | S -0.023 ± 0.094 | E -0.142 ± 0.12 | R -0.152 ± 0.083 | H -0.267 ± 0.37 | L -0.573 ± 0.11 | Q 0.104 ± 0.1 | G -0.357 ± 0.081 | Y -0.084 ± 0.19
S31: E -0.123 ± 0.099 | L -0.493 ± 0.098 | M -0.408 ± 0.15 | K -0.286 ± 0.12 | P -0.544 ± 0.21 | D -0.251 ± 0.14 | C -0.194 ± 0.16 | A -0.048 ± 0.086 | I -0.065 ± 0.15 | F -0.313 ± 0.15 | Q -0.152 ± 0.15
K15: S -0.147 ± 0.099 | W -0.668 ± 0.12 | P -0.79 ± 0.16 | L -0.3 ± 0.089 | M -0.578 ± 0.15 | D -0.571 ± 0.14 | V -0.408 ± 0.095 | N 0.201 ± 0.17 | A -0.337 ± 0.1 | R -0.415 ± 0.09 | C -0.382 ± 0.15 | G -0.265 ± 0.084 | F -0.32 ± 0.15 | I -0.327 ± 0.14 | Q -0.264 ± 0.13 | E 0.037 ± 0.12 | T -0.119 ± 0.11
V20: Q 0.052 ± 0.11 | T -0.067 ± 0.08 | K 0.161 ± 0.17 | C -0.446 ± 0.093 | R -0.026 ± 0.078 | M -0.007 ± 0.1 | D 0.164 ± 0.1 | E 0.101 ± 0.18 | S -0.07 ± 0.073 | G -0.485 ± 0.11 | H -0.033 ± 0.08 | L -0.406 ± 0.076 | I -0.144 ± 0.076 | N -0.014 ± 0.082 | A 0.141 ± 0.11 | Y -0.036 ± 0.083
S23: R 0.058 ± 0.093 | M -0.062 ± 0.14 | I -0.007 ± 0.2 | A -0.035 ± 0.087 | E 0.155 ± 0.11 | F -0.944 ± 0.2 | H -0.277 ± 0.18 | C -0.055 ± 0.13 | T 0.409 ± 0.14 | K -0.035 ± 0.15 | V -0.132 ± 0.096 | P -0.686 ± 0.17 | N -0.835 ± 0.4 | G -0.31 ± 0.094 | Q -0.152 ± 0.15
K14: G -0.518 ± 0.085 | N -0.419 ± 0.2 | L -0.247 ± 0.093 | Q -0.328 ± 0.11 | D -0.303 ± 0.18 | V -0.33 ± 0.093 | P -0.431 ± 0.16 | H -0.738 ± 0.24 | A -0.029 ± 0.1 | S -0.708 ± 0.1 | E -0.173 ± 0.17 | W -0.431 ± 0.11 | C -0.222 ± 0.15 | T -0.644 ± 0.15 | R 0.02 ± 0.082 | M -0.199 ± 0.12 | F -0.811 ± 0.23
C29: G -0.716 ± 0.082 | L -0.977 ± 0.17 | T -0.861 ± 0.17 | P -0.715 ± 0.19 | I -1.2 ± 0.36 | N -0.816 ± 0.16 | F -1.08 ± 0.2 | S -1.06 ± 0.14 | H -0.418 ± 0.15 | E -0.63 ± 0.12 | M -0.935 ± 0.18 | W -0.815 ± 0.17 | V -0.959 ± 0.12 | K -0.776 ± 0.18 | A -0.675 ± 0.092
L25: C -0.208 ± 0.17 | K -0.59 ± 0.21 | S -0.394 ± 0.1 | P -1.06 ± 0.27 | W -0.962 ± 0.15 | E -0.586 ± 0.18 | H -0.081 ± 0.22 | T -0.612 ± 0.16 | D -0.725 ± 0.23 | Q -0.388 ± 0.14 | M -0.5 ± 0.2 | N -0.502 ± 0.41 | V 0.103 ± 0.088 | F -0.581 ± 0.16 | A -0.639 ± 0.12 | I -0.033 ± 0.4 | R -0.45 ± 0.11 | Y -0.02 ± 0.15
F17: L -0.081 ± 0.094 | W 0.089 ± 0.12 | C -0.77 ± 0.2 | D -0.726 ± 0.14 | Q -0.653 ± 0.27 | S -0.755 ± 0.11 | V -0.328 ± 0.091 | N -0.675 ± 0.18 | K -0.274 ± 0.13 | M -0.062 ± 0.11 | T -0.443 ± 0.12 | R -0.356 ± 0.093 | I -0.464 ± 0.15 | Y -0.205 ± 0.14 | G -0.664 ± 0.095 | H -0.598 ± 0.18
E12: V -0.072 ± 0.088 | F -0.035 ± 0.12 | Q 0.066 ± 0.11 | L 0 ± 0.082 | K 0.265 ± 0.12 | G -0.01 ± 0.076 | M -0.117 ± 0.12 | H -0.228 ± 0.24 | W -0.439 ± 0.095 | R 0.021 ± 0.079 | Y -0.092 ± 0.13 | D 0.077 ± 0.12 | C -0.01 ± 0.15 | T 0.047 ± 0.097 | P -0.671 ± 0.11 | I -0.341 ± 0.17 | A 0.113 ± 0.09 | N -0.797 ± 0.27
